From patent US20150239991A1 (GLENMARK PHARMACEUTICALS S A, published 2015) come the findings set out here.

Numbering of substitutions follows the chain as printed. Names may count otherwise. Read-outs that look alike come from different tables or passages of the source.

The target in one experiment is T1, MabSelect™ Protein A (Staphylococcus aureus, UniProt P38507 37-327).
T1 construct: also called HiTrap™ MabSelect™ Protein A column; MabSelect™ resin
Description: Protein A gradient mode chromatography (HiTrap MabSelect column), A280 trace against pH gradient.

Experiment [1] has as its target T2, Protein G (group C and G Streptococci, UniProt P19909 303-427).
T2 construct: Two commercial resins used (Sepharose 4 Fast Flow for capture-elution, HiTrap HP for gradient); also called Protein G Sepharose™ 4 Fast Flow resin; HiTrap™ Protein G HP column
Description: Protein G gradient mode chromatography (HiTrap Protein G HP column), A280 trace against pH gradient.

Experiment [2] concerns the target T2, Protein G. The description is as above. This is another data set of the same source.
The target in experiment [3] is T2, Protein G. The description is as above. The source holds these as a separate data set.
Experiment [4] concerns the target T3, human FcRn (human, UniProt P55899 24-297; P61769 21-119).
T3 construct: range 24-297;range 21-119; Alpha chain non-covalently associated with beta2-microglobulin; used as analyte at pH 6.0; also called human neonatal Fc receptor; soluble form of the extracellular region of the human FcRn
Description: SPR on human FcRn at pH 6.0, steady state KD expressed as ratio to the unmodified IGHG1 control.
Description: (§1) Growth medium was PowerCHO2 (Lonza Ltd, Basel, Switzerland). Prior purification, post-production supernatants were conditioned with 0.2M NaH₂PO₄, 0.1M NaCl pH6.0 in order to adjust pH to 6.0. FcRn was purified using human IgG sepharose6 Fast flow (GE Healthcare Europe GmbH, Glattbrugg, Switzerland) and eluted with PBS pH7.4. Measurements were recorded on a BIAcore™ 2000 instrument (GE Healthcare Europe GmbH, Glattbrugg, Switzerland). Each Immunoglobulin variant was immobilized on a CM5 sensor chip (GE Healthcare Europe GmbH, Glattbrugg, Switzerland) via amine coupling using a standard protocol provided by the manufacturer to reach an approximate response of 1500 RUs. […] After 3 min of dissociation, PBS pH7.4 was injected for 1 min at 30 μl/min for surface regeneration. KD values were determined using a steady state affinity model. Equilibrium constants were determined by fitting the steady-state response versus the concentration of human FcRn over a range of concentrations to a 1:1 binding model (stoichiometry (n)=1). Measurements were performed in triplicate, and included zero-concentration samples for referencing. Both Chi2 and residual values were used to evaluate the quality of a fit between the experimental data and individual binding models.
To fit this purpose, each homo-dimeric immunoglobulin was directly coupled onto a CM5 sensor chip. A soluble form of the extracellular region of the human FcRn consisting of its alpha chain non-covalently associated with beta2-microglobulin protein was prepared and used as analyte.

Experiment [5] has as its target T3, human FcRn. Description: SPR (BIAcore 2000): immunoglobulin amine-coupled to a CM5 chip, human FcRn injected as analyte at pH 6.0, steady state affinity model. On the technique in general: Surface plasmon resonance follows binding to a sensor surface in real time, without labels.
Description: as §1
To fit this purpose, each homo-dimeric immunoglobulin was directly coupled onto a CM5 sensor chip. […]

T3 sequence (P55899 24-297 limits assumed, form in doubt, chain 1 of 2): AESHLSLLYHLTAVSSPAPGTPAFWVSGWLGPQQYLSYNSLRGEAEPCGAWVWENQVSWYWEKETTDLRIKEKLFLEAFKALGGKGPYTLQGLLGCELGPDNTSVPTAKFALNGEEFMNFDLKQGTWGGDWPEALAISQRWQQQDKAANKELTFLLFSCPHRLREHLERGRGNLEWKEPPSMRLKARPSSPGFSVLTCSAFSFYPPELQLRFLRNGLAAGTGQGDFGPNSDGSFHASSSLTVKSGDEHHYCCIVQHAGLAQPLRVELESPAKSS
T3 sequence (P61769 21-119 limits assumed, form in doubt, chain 2 of 2): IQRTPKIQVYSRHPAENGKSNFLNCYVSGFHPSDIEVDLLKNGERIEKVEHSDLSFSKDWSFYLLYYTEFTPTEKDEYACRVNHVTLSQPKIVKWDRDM

B1: Anti-HER2 FAB R19G/T57A/Y59A (Fab)
heavy chain: EVQLVESGGGLVQPGGSLGLSCAASGFNIKDTYIHWVRQAPGKGLEWVARIYPTNGYARAADSVKGRFTISADTSKNTAYLQMNSLRAEDTAVYYCSRWGGDGFYAMDYWGQGTLVTVSSASTKGPSVFPLAPSSKSTSGGTAALGCLVKDYFPEPVTVSWNSGALTSGVHTFPAVLQSSGLYSLSSVVTVPSSSLGTQTYICNVNHKPSNTKVDKKVEPKSC
light chain: not shown
notes: also called combination R19G/T57A/Y59A
On to B1, for which, in the experiment with MabSelect™ Protein A, the binding result is given as “no binding”.

B2: Fc M252A/E380A/E382A/Y436A/Q438A (other)
chain: DKTHTCPPCPAPELLGGPSVFLFPPKPKDTLAISRTPEVTCVVVDVSHEDPEVKFNWYVDGVEVHNAKTKPREEQYNSTYRVVSVLTVLHQDWLNGKEYKCKVSNKALPAPIEKTISKAKGQPREPQVYTLPPSRDELTKNQVSLTCLVKGFYPSDIAVAWASNGQPENNYKTTPPVLDSDGSFFLYSKLTVDKSRWQQGNVFSCSVMHEALHNHATAKSLSLSPGK
notes: Homo-dimeric human IGHG1 Fc variant, EU numbering
For the molecule B2, the binding result with Protein G [1] is recorded as “no binding”.

B3: Fc S426M/M428G/H433D/N434A (other)
chain: B2 chain with A32M, A160E, A162E, S206M, M208G, H213D, N214A, A216Y, A218Q
notes: as for B2
On to B3, for which the binding result with Protein G [2] was “no binding”.

B4: Fc S254M/E380M/E382L/S426M/M428G (other)
chain: B2 chain with A32M, S34M, A160M, A162L, S206M, M208G, A216Y, A218Q
notes: as for B2
As for B4, in the experiment with Protein G [3], the binding result is reported as “no binding”.

B5: Anti-hCD19 FAB-Fc S426M/M428G/H433D/N434A (antibody, human IgG1, kappa)
heavy chain: QVQLVQSGGGVVQPGRSLRLSCAASGVSLPDYGVSWVRQAPGKGLEWVAVIWGSETTYYNSALKSRFTISRDNSKNTLYLQMNSLRAEDTAVYYCAKHYYYGGSYAMDYWGQGTLVTVSSASTKGPSVFPLAPSSKSTSGGTAALGCLVKDYFPEPVTVSWNSGALTSGVHTFPAVLQSSGLYSLSSVVTVPSSSLGTQTYICNVNHKPSNTKVDKKVEPKSCDKTHTCPPCPAPELLGGPSVFLFPPKPKDTLMISRTPEVTCVVVDVSHEDPEVKFNWYVDGVEVHNAKTKPREEQYNSTYRVVSVLTVLHQDWLNGKEYKCKVSNKALPAPIEKTISKAKGQPREPQVYTLPPSRDELTKNQVSLTCLVKGFYPSDIAVEWESNGQPENNYKTTPPVLDSDGSFFLYSKLTVDKSRWQQGNVFSCMVGHEALDAHYTQKSLSLSPGK
light chain: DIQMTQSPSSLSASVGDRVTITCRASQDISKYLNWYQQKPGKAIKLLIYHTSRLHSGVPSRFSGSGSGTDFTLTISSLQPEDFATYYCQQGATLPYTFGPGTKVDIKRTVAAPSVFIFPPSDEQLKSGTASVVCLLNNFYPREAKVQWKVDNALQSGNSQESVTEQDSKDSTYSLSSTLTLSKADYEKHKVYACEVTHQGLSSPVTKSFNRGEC
B5: the “KD ratio (IGHG1/mutant)” value with human FcRn [4] stood at 0.48.

B6: anti-hCD19 FAB-Fc 113 (antibody, human IgG1, kappa)
heavy: QVQLVQSGGGVVQPGRSLRLSCAASGVSLPDYGVSWVRQAPGKGLEWVAVIWGSETTYYNSALKSRFTISRDNSKNTLYLQMNSLRAEDTAVYYCAKHYYYGGSYAMDYWGQGTLVTVSSASTKGPSVFPLAPSSKSTSGGTAALGCLVKDYFPEPVTVSWNSGALTSGVHTFPAVLQSSGLYSLSSVVTVPSSSLGTQTYICNVNHKPSNTKVDKKVEPKSCDKTHTCPPCPAPELLGGPSVFLFPPKPKDTLMISRTPEVTCVVVDVSHEDPEVKFNWYVDGVEVHNAKTKPREEQYNSTYRVVSVLTVLHQDWLNGKEYKCKVSNKALPAPIEKTISKAKGQPREPQVYTLPPSREEMTKNQVSLTCLVKGFYPSDIAVEWESSGQPENNYNTTPPMLDSDGSFFLYSKLTVDKSRWQQGNIFSCSVMHEALHNRFTQKSLSLSPGK
light: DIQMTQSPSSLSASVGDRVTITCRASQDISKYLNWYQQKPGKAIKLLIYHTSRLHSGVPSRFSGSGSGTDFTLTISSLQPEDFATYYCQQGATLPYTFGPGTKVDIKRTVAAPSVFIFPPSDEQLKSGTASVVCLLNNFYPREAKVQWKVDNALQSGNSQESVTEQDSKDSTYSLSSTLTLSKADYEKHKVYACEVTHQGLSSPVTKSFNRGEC
notes: copies: 2 + 2
Regarding B6, the “KD ratio (IGHG1/mutant)” value with human FcRn [4] came out at 0.76.

B7: anti-hCD19 FAB-Fc 133 (antibody, human IgG1, kappa)
heavy: B6 heavy with K277Q, N279K, Y303F, A342T
light: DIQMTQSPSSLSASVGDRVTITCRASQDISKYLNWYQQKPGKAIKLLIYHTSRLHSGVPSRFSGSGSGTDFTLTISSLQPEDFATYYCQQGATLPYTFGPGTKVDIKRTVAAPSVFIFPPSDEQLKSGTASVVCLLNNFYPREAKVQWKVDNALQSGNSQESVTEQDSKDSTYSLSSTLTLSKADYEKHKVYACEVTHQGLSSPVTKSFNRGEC
notes: copies: 2 + 2
Broadly, the Kd is the concentration at which binding is half-saturated. Lower therefore signals a tighter complex. On to B7, for which the equilibrium dissociation constant (Kd) in the experiment with human FcRn [5] worked out at 2680 nM. In the experiment with human FcRn [4], the “KD ratio (IGHG1/mutant)” value stood at 0.73.
